Values joined by “and” are separate entries in the source; they are usually repeats but may differ in a detail not shown here. Equal entries are not always repeated.
Tests used:
[1] = molecular target: CagY-C2 (recombinant N-terminal His-tagged CagY repeat 2 motif A fragment) (Helicobacter pylori strain Q121B); assay: non-reducing SDS-PAGE; affinity-purified His-tagged protein on 15% SDS-PAGE without reducing agent, beside a reducing gel; multimers held by disulphide linkages
[2] = molecular target: CagY-C2 (recombinant N-terminal His-tagged CagY repeat 2 motif A fragment) (Helicobacter pylori strain Q121B); assay: SEC; 26/60 Superdex 200, 20 mM Tris (pH 8.0), 200 mM NaCl, 2 mL/min; calibrated with known standards; peaks analysed by SDS-PAGE (not shown)
[3] = molecular target: CagY-C2_(C3S/C28S/C41S) (Helicobacter pylori strain Q121B); assay: non-reducing SDS-PAGE; affinity-purified His-tagged protein on 15% SDS-PAGE without reducing agent, beside a reducing gel; multimers held by disulphide linkages

For “CagY-C2 (recombinant N-terminal His-tagged CagY repeat 2 motif A fragment) (domain or fragment)”, the stoichiometry N [1] was 2 and 3 and 4 and the stoichiometry N [2] was 2.
With “CagY-C2_(C3S/C28S/C41S) (domain or fragment)” the stoichiometry N [3] was 2.

Reference: PMC2581425
